Test results taken from patent US20110118447A1.
Residue numbers refer to the chain shown, from its start. Names and notes keep the numbering of the source. Each block holds one binder with its values, some of them ahead of it.

Columns and labels:
[1] = target: binding partner of C5A (XPA23); experiment: Biacore, K-off
[2] = target: binding partner of C5A (XPA23); experiment: Biacore

- fold difference in affinity vs original [1]: 0.98 fold
- fold affinity vs original [2]: 0.98 fold
B1: C5A (XPA23) VH T58H (antibody, V domains shown)
VH: EVQLLESGGGLVQPGGSLRLSCAASGFTFSKYFMFWVRQAPGKGLEWVSVISPSGGMHRYADSVKGRFTISRDNSKNTLYLQMNSLRAEDTAVYYCARVGYGGNSDYWGQGTLVTVSS
VL: DIQMTQSPSSVSASVGDRLTIICRASQDINRWLAWYQQTPGNAPKLLIHSATSLQSGVPSRFSGSGSGTDFTLTINSLQPEDFATYYCQQADSFPLTFGGGTKVEIK

- fold difference in affinity vs original [1]: 0.13 fold
- fold affinity vs original [2]: 0.13 fold
B2: C5A (XPA23) VH R59S (antibody, V domains shown)
VH: B1 VH with H58T, R59S
VL: B1 VL

- fold difference in affinity vs original [1]: 0.12 fold
- fold difference in affinity vs original [2]: 0.12 fold
B3: C5A (XPA23) VH G100T (antibody, V domains shown)
VH: B1 VH with H58T, G100T
VL: B1 VL

- fold difference in affinity vs original [1]: 1.02 fold
- fold affinity vs original [2]: 1.02 fold
B4: C5A (XPA23) VH N104S (antibody, V domains shown)
VH: B1 VH with H58T, N104S
VL: B1 VL

- fold difference in affinity vs original [1]: 0.85 fold
- fold affinity vs original [2]: 0.85 fold
B5: C5A (XPA23) VH Y101R (antibody, V domains shown)
VH: B1 VH with H58T, Y101R
VL: B1 VL

- fold difference in affinity vs original [1]: 1.17 fold
- fold affinity vs original [2]: 1.17 fold
B6: C5A (XPA23) VH G102N (antibody, V domains shown)
VH: B1 VH with H58T, G102N
VL: B1 VL

- fold difference in affinity vs original [1]: 0.86 fold
- fold affinity vs original [2]: 0.86 fold
B7: C5A (XPA23) VH R59N (antibody, V domains shown)
VH: B1 VH with H58T, R59N
VL: B1 VL

- fold difference in affinity vs original [1]: 0.09 fold
- fold affinity vs original [2]: 0.09 fold
B8: C5A (XPA23) VH G100Y (antibody, V domains shown)
VH: B1 VH with H58T, G100Y
VL: B1 VL

- fold difference in affinity vs original [1]: 0.03 fold
- fold affinity vs original [2]: 0.03 fold
B9: C5A (XPA23) VH N104Q (antibody, V domains shown)
VH: B1 VH with H58T, N104Q
VL: B1 VL

- fold difference in affinity vs original [1]: 0.76 fold
- fold difference in affinity vs original [2]: 0.76 fold
B10: C5A (XPA23) VH R59T (antibody, V domains shown)
VH: B1 VH with H58T, R59T
VL: B1 VL

- fold difference in affinity vs original [1]: 0.86 fold
- fold affinity vs original [2]: 0.86 fold
B11: C5A (XPA23) VH R59Q (antibody, V domains shown)
VH: B1 VH with H58T, R59Q
VL: B1 VL

- fold difference in affinity vs original [1]: 2.8 fold
- fold affinity vs original [2]: 2.8 fold
B12: C5A (XPA23) VH G100S (antibody, V domains shown)
VH: B1 VH with H58T, G100S
VL: B1 VL

- fold difference in affinity vs original [1]: 1.14 fold
- fold affinity vs original [2]: 1.14 fold
B13: C5A (XPA23) VH T58R (antibody, V domains shown)
VH: B1 VH with H58R
VL: B1 VL

- fold difference in affinity vs original [1]: 0.04 fold
- fold affinity vs original [2]: 0.04 fold
B14: C5A (XPA23) VH Y101H (antibody, V domains shown)
VH: B1 VH with H58T, Y101H
VL: B1 VL

- fold difference in affinity vs original [1]: 1.01 fold
- fold affinity vs original [2]: 1.01 fold
B15: C5A (XPA23) VH T58Y (antibody, V domains shown)
VH: B1 VH with H58Y
VL: B1 VL

- fold difference in affinity vs original [1]: 0.05 fold
- fold affinity vs original [2]: 0.05 fold
B16: C5A (XPA23) VH S105H (antibody, V domains shown)
VH: B1 VH with H58T, S105H
VL: B1 VL

- fold difference in affinity vs original [1]: 0.9 fold
- fold affinity vs original [2]: 0.9 fold
B17: C5A (XPA23) VH T58N (antibody, V domains shown)
VH: B1 VH with H58N
VL: B1 VL

- fold difference in affinity vs original [1]: 0.95 fold
- fold difference in affinity vs original [2]: 0.95 fold
B18: C5A (XPA23) VH N104T (antibody, V domains shown)
VH: B1 VH with H58T, N104T
VL: B1 VL

- fold difference in affinity vs original [1]: 0.03 fold
- fold affinity vs original [2]: 0.03 fold
B19: C5A (XPA23) VH Y101E (antibody, V domains shown)
VH: B1 VH with H58T, Y101E
VL: B1 VL

- fold difference in affinity vs original [1]: 0.94 fold
- fold affinity vs original [2]: 0.94 fold
B20: C5A (XPA23) VH R59K (antibody, V domains shown)
VH: B1 VH with H58T, R59K
VL: B1 VL

- fold difference in affinity vs original [1]: 0.82 fold
- fold affinity vs original [2]: 0.82 fold
B21: C5A (XPA23) VH T58S (antibody, V domains shown)
VH: B1 VH with H58S
VL: B1 VL

- fold difference in affinity vs original [1]: 0.06 fold
- fold difference in affinity vs original [2]: 0.06 fold
B22: C5A (XPA23) VH Y101T (antibody, V domains shown)
VH: B1 VH with H58T, Y101T
VL: B1 VL

- fold difference in affinity vs original [1]: 0.1 fold
- fold difference in affinity vs original [2]: 0.1 fold
B23: C5A (XPA23) VH V99T (antibody, V domains shown)
VH: B1 VH with H58T, V99T
VL: B1 VL

- fold difference in affinity vs original [1]: 0.06 fold
- fold affinity vs original [2]: 0.06 fold
B24: C5A (XPA23) VH G100H (antibody, V domains shown)
VH: B1 VH with H58T, G100H
VL: B1 VL

- fold difference in affinity vs original [1]: 1.17 fold
- fold affinity vs original [2]: 1.17 fold
B25: C5A (XPA23) VH S105E (antibody, V domains shown)
VH: B1 VH with H58T, S105E
VL: B1 VL

- fold difference in affinity vs original [1]: 0.06 fold
- fold affinity vs original [2]: 0.06 fold
B26: C5A (XPA23) VH Y101Q (antibody, V domains shown)
VH: B1 VH with H58T, Y101Q
VL: B1 VL

- fold difference in affinity vs original [1]: 0.06 fold
- fold affinity vs original [2]: 0.06 fold
B27: C5A (XPA23) VH Y101N (antibody, V domains shown)
VH: B1 VH with H58T, Y101N
VL: B1 VL

- fold difference in affinity vs original [1]: 0.07 fold
- fold affinity vs original [2]: 0.07 fold
B28: C5A (XPA23) VH N104H (antibody, V domains shown)
VH: B1 VH with H58T, N104H
VL: B1 VL
